Literature values as cited in article PMC9331257.
Each block holds one substance with its values, some of them ahead of it.

Columns and labels:
PAC1R (Homo sapiens) [1] = target: PAC1R (Homo sapiens) (UniProt P41586); experiment: radioligand binding
[2] = target: PACAP type II receptor (Homo sapiens) (UniProt P32241); experiment: radioligand binding
VPAC1R (Homo sapiens) = VPAC1R (Homo sapiens) (UniProt P32241); experiment: [125I]VIP displacement
PAC1R (Homo sapiens) [3] = target: PAC1R (Homo sapiens) (UniProt P41586); experiment: [125I]Ac-His1-PACAP27 displacement
VPAC2R (Homo sapiens) = VPAC2R (Homo sapiens) (UniProt P41587); experiment: [125I]Ac-His1-PACAP27 displacement
PAC1R (Homo sapiens) [4] = target: PAC1R (Homo sapiens) (UniProt P41586); experiment: radioligand
[5] = target: PACAP type II receptor (Homo sapiens) (UniProt P32241); experiment: radioligand

Sequence of UniProt P41586 (P41586 21-468): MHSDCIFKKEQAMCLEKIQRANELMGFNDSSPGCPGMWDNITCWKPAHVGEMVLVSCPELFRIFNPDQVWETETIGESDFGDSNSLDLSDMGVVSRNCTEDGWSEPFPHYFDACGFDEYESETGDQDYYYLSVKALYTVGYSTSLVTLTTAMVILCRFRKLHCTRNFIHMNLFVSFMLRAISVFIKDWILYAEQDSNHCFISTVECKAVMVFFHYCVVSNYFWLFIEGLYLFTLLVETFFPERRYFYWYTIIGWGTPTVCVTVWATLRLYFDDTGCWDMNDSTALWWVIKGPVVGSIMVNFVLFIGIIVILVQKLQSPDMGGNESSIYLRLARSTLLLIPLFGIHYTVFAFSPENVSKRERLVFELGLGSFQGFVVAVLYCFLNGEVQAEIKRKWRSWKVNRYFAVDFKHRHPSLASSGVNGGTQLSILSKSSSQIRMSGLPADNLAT
Sequence of VIP (P01282 125-152): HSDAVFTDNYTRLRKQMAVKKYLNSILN
Sequence of PACAP (P18509 82-129): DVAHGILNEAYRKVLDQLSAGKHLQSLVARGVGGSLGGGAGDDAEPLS
Sequence of UniProt P41587 (P41587 24-438): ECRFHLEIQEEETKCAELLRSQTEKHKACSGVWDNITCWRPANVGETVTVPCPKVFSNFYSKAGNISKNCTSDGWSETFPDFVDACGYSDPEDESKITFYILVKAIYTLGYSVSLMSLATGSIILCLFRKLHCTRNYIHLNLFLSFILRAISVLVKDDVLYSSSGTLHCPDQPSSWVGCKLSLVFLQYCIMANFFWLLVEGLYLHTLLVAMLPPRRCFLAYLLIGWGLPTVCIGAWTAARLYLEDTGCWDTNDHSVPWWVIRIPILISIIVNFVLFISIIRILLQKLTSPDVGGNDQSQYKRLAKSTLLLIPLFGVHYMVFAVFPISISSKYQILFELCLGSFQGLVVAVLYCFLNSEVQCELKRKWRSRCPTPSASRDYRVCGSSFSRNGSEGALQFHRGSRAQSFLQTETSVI

- Kd (PAC1R (Homo sapiens) [1]): 0.5 nM
- Kd [2]: 0.5 nM
Substance: PACAP (from UniProt P18509)

- Ki (VPAC1R (Homo sapiens)): 600 nM
- Ki (PAC1R (Homo sapiens) [3]): 30 nM
- Ki (VPAC2R (Homo sapiens)): 40 nM
Substance: PACAP(6-38) 6-38 (from UniProt P18509)

- Kd (PAC1R (Homo sapiens) [4]): > 500 nM
- Kd [5]: 0.5 nM
Substance: VIP (from UniProt P01282)
